Measurements: paper PMC10657414, “LncRNA INHEG promotes glioma stem cell maintenance and tumorigenicity through regulating rRNA 2’-O-methylation” (Nature Communications, 2023)

Target: T1, GST-tagged full-length TAF15 (human, UniProt Q92804 1-592)
T1 construct: TAF15, human, full length, cloned into pGEX-6p-1; Immobilised on glutathione-Sepharose 4B in the pull-down; also called GST-TAF15; source: E. coli BL21, purified (Glutathione Sepharose)
Assay: pull-down; GST pull-down: GST-TAF15 or GST alone immobilised on glutathione-Sepharose 4B, His-NOP58 added, 1 h at 4 °C in 50 mM Tris-HCl pH 7.5, 150 mM NaCl, 10 mM MgCl2, 10% glycerol, 1% Triton X-100, 1 mM DTT, 1% BSA; western blot; also with in vitro transcribed INHEG
Conditions: both partners purified

T1 sequence (Q92804 whole entry): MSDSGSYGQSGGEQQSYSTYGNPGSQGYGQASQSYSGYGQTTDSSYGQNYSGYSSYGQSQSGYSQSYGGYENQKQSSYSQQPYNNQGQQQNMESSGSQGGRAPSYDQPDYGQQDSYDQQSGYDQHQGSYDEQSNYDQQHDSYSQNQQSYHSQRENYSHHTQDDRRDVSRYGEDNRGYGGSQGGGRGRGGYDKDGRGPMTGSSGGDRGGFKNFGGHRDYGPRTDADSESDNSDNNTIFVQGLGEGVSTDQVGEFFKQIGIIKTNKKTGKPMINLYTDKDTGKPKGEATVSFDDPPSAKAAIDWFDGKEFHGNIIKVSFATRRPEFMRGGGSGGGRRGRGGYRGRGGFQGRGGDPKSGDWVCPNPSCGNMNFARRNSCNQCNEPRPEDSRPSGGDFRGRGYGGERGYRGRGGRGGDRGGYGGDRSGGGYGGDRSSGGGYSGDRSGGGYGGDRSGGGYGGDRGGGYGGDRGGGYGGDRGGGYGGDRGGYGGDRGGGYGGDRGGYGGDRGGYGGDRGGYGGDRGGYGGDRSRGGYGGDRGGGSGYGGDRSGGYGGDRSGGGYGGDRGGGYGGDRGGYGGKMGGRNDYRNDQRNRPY

binding result: binds
B1: His-tagged full-length NOP58 (natural protein, human, UniProt Q9Y2X3 1-529, looked up)
chain: MLVLFETSVGYAIFKVLNEKKLQEVDSLWKEFETPEKANKIVKLKHFEKFQDTAEALAAFTALMEGKINKQLKKVLKKIVKEAHEPLAVADAKLGGVIKEKLNLSCIHSPVVNELMRGIRSQMDGLIPGVEPREMAAMCLGLAHSLSRYRLKFSADKVDTMIVQAISLLDDLDKELNNYIMRCREWYGWHFPELGKIISDNLTYCKCLQKVGDRKNYASAKLSELLPEEVEAEVKAAAEISMGTEVSEEDICNILHLCTQVIEISEYRTQLYEYLQNRMMAIAPNVTVMVGELVGARLIAHAGSLLNLAKHAASTVQILGAEKALFRALKSRRDTPKYGLIYHASLVGQTSPKHKGKISRMLAAKTVLAIRYDAFGEDSSSAMGVENRAKLEARLRTLEDRGIRKISGTGKALAKTEKYEHKSEVKTYDPSGDSTLPTCSKKRKIEQVDKEDEITEKKAKKAKIKVKVEEEEEEKVAEEEETSVKKKKKRGKKKHIKEEPLSEEEPCTSTAIASPEKKKKKKKKRENED
notes: NOP58, human, full length, cloned into pET-28a; also called His-NOP58; source: E. coli BL21, purified (Ni-NTA)
